# Residue numbers refer to the chain shown, from its start.
# B1: CD71-binding FN3 domain of SEQ ID NO: 234 conjugated to KRAS2 siRNA (designed binder)
# chain: MSLPAPKNLVVSRVTEDSARLSWTAPDAAFDSFFIGYLEPQPPGEAIALYVPGSERSYDLTGLKPGTEYNVTIQGVKGGFPSEPLVAHFTT
# modifications: conjugated to KRAS2 tool siRNA; site and linker not stated
# B2: CD71-binding FN3 domain of SEQ ID NO: 281 conjugated to KRAS2 siRNA (designed binder)
# chain: B1 chain with V86I, H88N
# modifications: conjugated to KRAS2 tool siRNA; site and linker not stated
# B3: CD71-binding FN3 domain of SEQ ID NO: 264 conjugated to KRAS2 siRNA (designed binder)
# chain: B1 chain with A87V
# modifications: conjugated to KRAS2 tool siRNA; site and linker not stated
# B4: CD71-binding FN3 domain of SEQ ID NO: 270 conjugated to KRAS2 siRNA (designed binder)
# chain: B1 chain with A48H, V86I, H88N, F89S
# modifications: conjugated to KRAS2 tool siRNA; site and linker not stated
# B5: CD71-binding FN3 domain of SEQ ID NO: 972 conjugated to KRAS2 siRNA (designed binder)
# chain: B1 chain with V76A, A87V
# modifications: conjugated to KRAS2 tool siRNA; site and linker not stated
# B6: CD71-binding FN3 domain of SEQ ID NO: 101 (designed binder)
# chain: MLPAPKNLVVSRVTEDSARLSWTAPDAAFDSFGIGYWERRWYGEAIVLTVPGSERSYDLTGLKPGTEYEVTIRGVKGGGYSGPLSAIFTT
# notes: Screen 1 hit, tested from colonies in the primary ELISA; not shown: C-terminal poly-histidine tag added to each FN3 domain
# B7: CD71-binding FN3 domain of SEQ ID NO: 102 (designed binder)
# chain: MLPAPKNLVVSRVTEDSARLSWTAPDAAFDSFDIGYTEYGGYGEAIILQVPGSERSYDLTGLKPGTEYWVLIQGVKGGGSSVPLVAYFTT
# notes: as for B6
# B8: CD71-binding FN3 domain of SEQ ID NO: 100 (designed binder)
# chain: MLPAPKNLVVSRVTEDSARLSWTAPDAAFDSFYIAYAEPRPDGEAILLLVPGSERSYDLTGLKPGTEYSVLIHGVKGGLLSSPLVASFTT
# notes: as for B6
# B9: CD71-binding FN3 domain of SEQ ID NO: 103 (designed binder)
# chain: B8 chain with L47I, L49G, V85S, S87Y, F88S
# notes: as for B6
# B10: CD71-binding FN3 domain of SEQ ID NO: 118 (designed binder)
# chain: B8 chain with L47T, L49W, L71T, V85S, S87I
# notes: as for B6
# B11: CD71-binding FN3 domain of SEQ ID NO: 106 (designed binder)
# chain: B8 chain with A28V, L47G, L49Y, V85T
# notes: as for B6
# B12: CD71-binding FN3 domain of SEQ ID NO: 108 (designed binder)
# chain: B8 chain with L49Q, S87K
# notes: as for B6
# B13: CD71-binding FN3 domain of SEQ ID NO: 116 (designed binder)
# chain: B8 chain with V85I, S87G
# notes: as for B6
# B14: CD71-binding FN3 domain of SEQ ID NO: 105 (designed binder)
# chain: MLPAPKNLVVSRVTEDSARLSWTAPDAAFDSFHIVYHEPRPSGEAIWLWVPGSERSYDLTGLKPGTEYEVGIVSVKGGDLSVPLSAIFTT
# notes: as for B6
# B15: CD71-binding FN3 domain of SEQ ID NO: 110 (designed binder)
# chain: B14 chain with W47Y, W49E, S85R, I87H
# notes: as for B6
# B16: CD71-binding FN3 domain of SEQ ID NO: 114 (designed binder)
# chain: B14 chain with W49F
# notes: as for B6
# Molecular target: human CD71 on cells (SKBR3; SW620-rLuc-KRAS) (human, UniProt P02786 1-760)
# Assay: cell-based or functional assay
# Chain of human CD71 on cells (SKBR3; SW620-rLuc-KRAS) (P02786 whole entry): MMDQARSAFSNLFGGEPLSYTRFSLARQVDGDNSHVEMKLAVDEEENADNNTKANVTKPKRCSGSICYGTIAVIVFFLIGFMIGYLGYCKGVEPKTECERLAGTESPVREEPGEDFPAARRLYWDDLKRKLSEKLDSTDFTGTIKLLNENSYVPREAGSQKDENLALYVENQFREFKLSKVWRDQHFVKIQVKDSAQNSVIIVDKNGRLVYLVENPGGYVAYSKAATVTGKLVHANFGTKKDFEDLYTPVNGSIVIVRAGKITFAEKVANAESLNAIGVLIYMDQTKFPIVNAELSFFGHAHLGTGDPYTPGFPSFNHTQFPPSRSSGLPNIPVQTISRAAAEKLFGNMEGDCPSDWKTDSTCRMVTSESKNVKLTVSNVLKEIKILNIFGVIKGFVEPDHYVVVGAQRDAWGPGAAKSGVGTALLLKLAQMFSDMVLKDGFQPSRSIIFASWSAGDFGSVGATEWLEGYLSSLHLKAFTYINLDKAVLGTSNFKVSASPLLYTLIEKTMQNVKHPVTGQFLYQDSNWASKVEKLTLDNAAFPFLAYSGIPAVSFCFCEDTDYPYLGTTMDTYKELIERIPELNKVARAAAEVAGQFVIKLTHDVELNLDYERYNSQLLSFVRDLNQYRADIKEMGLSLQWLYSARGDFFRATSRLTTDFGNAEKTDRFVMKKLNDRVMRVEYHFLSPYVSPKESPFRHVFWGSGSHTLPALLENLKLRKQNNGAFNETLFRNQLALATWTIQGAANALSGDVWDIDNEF
row,"LSA EC50 (luciferase reporter assay, SW620-rLuc-KRAS cells, 72 h) [nM]",Binder
1,0.63,B1
2,0.39,B2
3,0.45,B3
4,2.1,B4
5,0.49,B5

# Molecular target: T1, apical domain of human CD71 (human, UniProt P02786 189-383, limits assumed)
# T1 construct: domain: apical domain; the panning antigen was 30% biotinylated; also called human apical domain of CD71
# Assay: primary ELISA; signal on apical domain over signal on HSA
# T1 sequence (P02786 189-383 limits assumed): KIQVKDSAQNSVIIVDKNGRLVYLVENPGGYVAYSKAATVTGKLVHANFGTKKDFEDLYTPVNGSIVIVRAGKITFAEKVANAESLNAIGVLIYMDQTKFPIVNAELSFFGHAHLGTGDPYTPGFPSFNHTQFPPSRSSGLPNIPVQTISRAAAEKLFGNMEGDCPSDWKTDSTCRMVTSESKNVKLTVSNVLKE
row,Apical domain:HSA [ratio],Binder
1,125,B6
2,1290,B7
3,787,B8
4,291,B9
5,1170,B10
6,1890,B11
7,1720,B12
8,2200,B13
9,1280,B14
10,2400,B15
11,311,B16

# Molecular target: T2, human CD71 extracellular domain (human, UniProt P02786 89-760)
# T2 construct: also called hCD71; human CD71-ECD
# Assay: primary ELISA of colonies, luminescence
# T2 sequence (P02786 89-760): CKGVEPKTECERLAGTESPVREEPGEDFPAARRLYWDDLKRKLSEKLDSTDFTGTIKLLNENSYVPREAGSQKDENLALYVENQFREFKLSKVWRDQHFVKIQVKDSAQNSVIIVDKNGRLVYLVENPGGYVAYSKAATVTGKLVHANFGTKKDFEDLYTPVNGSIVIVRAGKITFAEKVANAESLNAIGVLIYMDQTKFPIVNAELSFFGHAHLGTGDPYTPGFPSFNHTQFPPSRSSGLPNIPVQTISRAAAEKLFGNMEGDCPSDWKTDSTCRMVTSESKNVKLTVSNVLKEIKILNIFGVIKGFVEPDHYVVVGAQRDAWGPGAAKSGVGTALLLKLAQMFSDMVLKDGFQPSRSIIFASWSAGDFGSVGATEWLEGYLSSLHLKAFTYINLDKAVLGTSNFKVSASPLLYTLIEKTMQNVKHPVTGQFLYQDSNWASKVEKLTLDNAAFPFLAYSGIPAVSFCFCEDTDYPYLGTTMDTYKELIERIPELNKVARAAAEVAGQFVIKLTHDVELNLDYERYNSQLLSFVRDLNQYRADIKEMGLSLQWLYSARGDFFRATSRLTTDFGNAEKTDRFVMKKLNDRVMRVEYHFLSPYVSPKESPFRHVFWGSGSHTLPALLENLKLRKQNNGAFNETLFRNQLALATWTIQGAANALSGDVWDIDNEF
row,"hCD71, RLU [RLU]",Binder
1,340000,B6
2,308000,B7
3,6.95e+06,B8
4,6.37e+06,B9
5,641000,B10
6,3.13e+06,B11
7,3.81e+06,B12
8,4.05e+06,B13
9,1.51e+06,B14
10,5.17e+06,B15
11,1.5e+06,B16

# Molecular target: T1, apical domain of human CD71
# Assay: primary ELISA of colonies, luminescence
row,"Apical domain, RLU [RLU]",Binder
1,542000,B6
2,5.87e+06,B7
3,6.1e+06,B8
4,5.3e+06,B9
5,3.75e+06,B10
6,4.81e+06,B11
7,5.77e+06,B12
8,6.06e+06,B13
9,3.84e+06,B14
10,6e+06,B15
11,3.59e+06,B16

# Molecular target: T2, human CD71 extracellular domain
# Assay: primary ELISA; signal on hCD71 over signal on HSA
row,hCD71:HSA [ratio],Binder
1,78,B6
2,68,B7
3,897,B8
4,350,B9
5,200,B10
6,1230,B11
7,1140,B12
8,1470,B13
9,503,B14
10,2070,B15
11,130,B16
